Laboratory results reported in publication PMC6152951.

Target: Strep-Flag-FAS I, recombinant 4'-phosphopantetheinylated M. tuberculosis fatty acid synthase I (M. tuberculosis)
Assay: SEC; […] (100 mM potassium phosphate pH 7.2, 150 mM KCl, 1 mM TCEP, 1 mM EDTA); […]

Substance: Strep-Flag-FAS I, recombinant 4'-phosphopantetheinylated M. tuberculosis fatty acid synthase I (enzyme)
- stoichiometry N: 6
